Test results taken from PMC9190237 (Biochemistry, 2022).
Where no end group is shown, it is not given here. FAM = fluorescein

B2: Unmodified H3^(FAM) peptide (ARTKQTARKSTGG{K-FAM}) (peptide)
peptide: ARTKQTARKSTGGK(FAM)

What was measured:
[1] = target: T1, UHRF1^PHD (Homo sapiens, UniProt Q96T88); assay: Intrinsic tryptophan; type: binding; conditions: 5 μM peptide, 1 μM UHRF1^PHD
T1 sequence (Q96T88 298-366): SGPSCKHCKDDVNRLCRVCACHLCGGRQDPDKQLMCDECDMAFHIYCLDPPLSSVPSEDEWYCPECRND

[2] = target: UHRF1^PHD (as used for tryptophan fluorescence) (human (by the printed accession)); assay: intrinsic tryptophan fluorescence quenching
[3] = target: T2, UHRF1^TTD-PHD (His-tagged TTD-PHD domains of UHRF1; residues 133-366) (human (by the printed accession), UniProt Q96T88-1 133-366); assay: AlphaScreen or HTRF
T2 sequence (looked up): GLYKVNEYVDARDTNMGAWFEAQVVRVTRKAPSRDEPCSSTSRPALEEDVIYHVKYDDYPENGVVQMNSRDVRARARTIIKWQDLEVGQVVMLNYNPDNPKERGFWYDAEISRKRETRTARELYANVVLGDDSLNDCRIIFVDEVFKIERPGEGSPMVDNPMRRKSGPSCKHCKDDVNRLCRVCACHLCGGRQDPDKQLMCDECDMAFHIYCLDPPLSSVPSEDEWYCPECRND

[4] = target: T3, UHRF1^TTD (TTD construct alone; residues 127-285) (human (by the printed accession), UniProt Q96T88-1 127-285); assay: fluorescence polarisation
T3 sequence (looked up): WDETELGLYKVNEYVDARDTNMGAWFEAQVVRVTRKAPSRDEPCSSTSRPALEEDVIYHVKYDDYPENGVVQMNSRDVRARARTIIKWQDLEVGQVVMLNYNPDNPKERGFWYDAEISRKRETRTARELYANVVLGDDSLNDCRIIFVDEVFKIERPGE

[5] = target: B2; assay: fluorescence polarisation
[6] = target: T4, GST-UHRF1^PHD (residues 298-366) (human (by the printed accession), UniProt Q96T88-1 298-366); assay: fluorescence polarisation
T4 sequence (looked up): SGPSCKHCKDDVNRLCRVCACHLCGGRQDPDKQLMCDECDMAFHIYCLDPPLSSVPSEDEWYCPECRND

[7] = target: T2, UHRF1^TTD-PHD (His-tagged TTD-PHD …); assay: fluorescence polarisation
[8] = target: T5, Full-length UHRF1 (N-terminal 6xHis tag) (human (by the printed accession), UniProt Q96T88-1 1-793); assay: fluorescence polarisation
T5 sequence (looked up): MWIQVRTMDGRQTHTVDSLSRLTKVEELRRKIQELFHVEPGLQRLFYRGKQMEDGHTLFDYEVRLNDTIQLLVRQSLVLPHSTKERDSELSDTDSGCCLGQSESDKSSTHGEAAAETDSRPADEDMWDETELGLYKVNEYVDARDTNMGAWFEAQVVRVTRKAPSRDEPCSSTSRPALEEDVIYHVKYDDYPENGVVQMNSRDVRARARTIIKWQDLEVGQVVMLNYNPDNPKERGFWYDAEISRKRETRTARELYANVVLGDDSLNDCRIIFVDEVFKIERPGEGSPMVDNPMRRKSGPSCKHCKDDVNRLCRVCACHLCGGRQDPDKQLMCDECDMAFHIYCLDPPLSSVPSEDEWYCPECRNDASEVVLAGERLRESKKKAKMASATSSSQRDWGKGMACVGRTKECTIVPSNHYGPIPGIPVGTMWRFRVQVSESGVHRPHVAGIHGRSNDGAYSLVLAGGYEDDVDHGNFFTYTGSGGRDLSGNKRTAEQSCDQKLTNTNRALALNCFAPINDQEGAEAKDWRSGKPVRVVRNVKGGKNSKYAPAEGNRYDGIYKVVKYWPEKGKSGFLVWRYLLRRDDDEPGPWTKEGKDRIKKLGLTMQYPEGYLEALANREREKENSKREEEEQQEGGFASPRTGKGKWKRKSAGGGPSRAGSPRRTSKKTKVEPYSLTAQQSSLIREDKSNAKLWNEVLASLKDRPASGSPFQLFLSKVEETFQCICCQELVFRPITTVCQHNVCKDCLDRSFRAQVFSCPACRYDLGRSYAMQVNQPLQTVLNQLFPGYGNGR

[9] = target: T2, UHRF1^TTD-PHD (His-tagged TTD-PHD …); assay: fluorescence polarisation; remark: listed apart in the source

## ARTKQTAR{K-me3}STGG{K-FAM} [H3K9me3^(FAM)]
[1]
  W358 tryptophan fluorescence quenching of UHRF1^PHD: ~ 50%

## H3K9me3^(FAM) peptide (ARTKQTAR{K-me3}STGG{K-FAM})
[2]
  percent quenching of W358 fluorescence: 50%

## ARTKQTARKSTGGKW (trimethyl-lysine at K9; biotin on K14) [H3K9me3^(Biotin) peptide (ARTKQTAR{K-me3}STGG{K-biotin}W)]
[3]
  binding result: binds

## {FAM}-GKGKWKRKSAGGGPS [PBR^(FAM) peptide ({G-FAM}KGKWKRKSAGGGPS; UHRF1 polybasic region, residues 643-657)]
[4]
  binding result: binds

B1: GST-UHRF1^(PHD; 337A) (domain or fragment, human (by the printed accession), UniProt Q96T88-1 298-366, looked up)
chain: SGPSCKHCKDDVNRLCRVCACHLCGGRQDPDKQLMCDECAMAFHIYCLDPPLSSVPSEDEWYCPECRND
[5]
  fold impairment of binding against GST-UHRF1^PHD: ~12 fold

## B2
[6]
  binding result: binds
[7]
  binding result: binds

## ARTKQTARKSTGGKW (trimethyl-lysine at K9) [H3K9me3 peptide (unlabeled; ARTKQTAR{K-me3}STGGKW)]
[3]
  binding result: binds

## ARTKQTARKSTGGK (trimethyl-lysine at K9; FAM (fluorescein) on K14) [H3K9me3^(FAM) peptide (ARTKQTAR{K-me3}STGG{K-FAM})]
[8]
  binding result: binds
[4]
  binding result: binds
[9]
  binding result: binds
